{
  "source": "the DeepSol protein solubility set",
  "experiment": "soluble on expression in E. coli; label from the status in PepcDB or PDB records",
  "data": [
    {"sequence": "MNNALYNQIRIFQSIAREGNISAAARKLEITPPSVSNALRLLEEHIGHPLFVRTTRRIELTETGQQLLEQTAAAVETLEKSLEIIRDQNQEPSGAVRITLSRFAYLLILKPAMAAFCQQYPGIQLEISVYDGTVNIIEERFDLGIRFGDILEGGVVARPLMKPFREGLYASSAYLAEYGVPAMPADLHHHRLIGYRFITNNRILPLILNDHGEQLTVEMPGQLISNDIDVMADGIRHGLGIGRLFEPILQLQPDREQFIPVMEDYWKTYPPVYLYYPKNAGRTKRVKALIDFLIMYAADDAEKIGSSR", "values": [
      {"measurement": "soluble on expression in E. coli", "result": "not soluble"}
    ]},
    {"sequence": "MGSDKIHHHHHHMNVVVCIKQVPDTTNVRIDRKTNNLVREGVPSIINPDDERALELASQLKEKFGATVYVITMGPPQAKEALKDAIAFGLDEAVHLSDRTFAGADTLATTYTLYWGIKKIEERIGKIDLILTGKQAVDGDTGQVGPGLATRFGYALGAYVVRIEEIDPEKKEMVIVRRLDQGFEKIRLKLPAVLTITDELNKPRYADLPNLIRAIRYEPIVWTHKDLGLDPKKCGFFGSPTRVVSTNIPPARKGGDIISKNEDPEVAAEKLIEALKKFEAVRLVEALKPVLEGEKDE", "values": [
      {"measurement": "soluble on expression in E. coli", "result": "not soluble"}
    ]},
    {"sequence": "MGSDKIHHHHHHMTELHREAFDYAPNMRRLRAVIAVAEAGSVMRAAEALHLSQPAVTRAVRDLEKELGLALFERHRSGMLCTTAGKIVLHRFRRALQQLIEAETALARLHPEGNFERLPQRLSHRQLTVLVAVADLHNEPLAAKRLGLTQPAVSGNLRDLERLLGIALFLRTQRGMLATDGGAVLIRHAKMALRELSLVSDDLSAWQGEVRGRVVIGTLPLSSSLLVPHAVDALLRELPGLNVTIIEGTYDALFESLRHGEIDILIGALRQAGTSEDTHQQRLFHDRLAVAARQGHPLMKHAALQLSDLLDAQWIAPRQGTPARVSFEQEFRSAGLQPPSVVVESGNLSTIRTLLLDSDRVTLVSPHQVFFEVQSGQLALLPIKLTGTLRPIGITTRADDSPTQALKVLKDILLTLGERMADPSSATRA", "values": [
      {"measurement": "soluble on expression in E. coli", "result": "not soluble"}
    ]},
    {"sequence": "MKKYADDSLMLHTDLYQINMVETYWEDRMHERRAVFEVFFRKLPFGNGYAVFAGLERVIQFLQQFRFSDSDIDYLRQELGYRDDFLDYLRTLRFTGTVRSMREGEVVFANEPIMRIEAPLAEAQLIETAILNIINFQTLIATKASRIKHILGDEPALEFGSRRAQEMDAALWGARAAYIGGIEATSNVRAGKLFGIPVAGTHAHSMIQAYQDEYTAFLKYARRHKDCVFLVDTYDTLKSGVPNAIRVAKELGDQINFIGIRIDSGDLAYLSKEARKMLDEAGFPNAKIFASNDLDEDTILNLKSQGAKIDVWGIGTKLITAYDQPALGAVYKMVAIENERGEMVDTIKISGNPEKVTTPGLKRVYRIVNKINHKAEGDYIALESENPQQEERLKMFHPVYTFISKFVTNFEARDLHVTIFDNGRLVYTSPPLPDIQAYAKESLRLFWEEYKRTLNPEQYPVDLSQACWDNKMENIRKVKEKIAGASLSE", "values": [
      {"measurement": "soluble on expression in E. coli", "result": "not soluble"}
    ]},
    {"sequence": "MAKTLDSPGVLVVDFGGQYAHLIARRIRELGVYSEIVPATSLDALGEALPRAAGVVLSGGPGSVWGSRHDEAAAMVLQLGKPVLGICYGHQLLAKVLGGEVGRSPLPEFGPTEVEVLDYGILLNGLPSRFKVWMSHYDAVLRPPGEAKVLARTPGSPVAAMELWGRVFGVQWHPEVRHTQYGREVLDNWLSLVGAPRTWRPGDMVSELVESVKKEVGDALAVAAVSGGVDSTVAALIAKKAIGSRLYPVFIDHGLHPEGEVERVVKLLSRLGLEPVMVDAGEEFLAALEGVGDPEEKRRVVGRVYAEVLERAARDIGAEYLVQGTIYPDVIESGARPGADTIKTHHNVGGLPKDMRLKLVEPLRYFYKDEVRLLAEKLGVPRELIWKQPVPGPGLAVRVEGPITREKLRIVRRADAIVREEVEAAGLGGKLWQYFAVLTASMATGVRGDSRSYGYVVAVRAVESVDAMTAKPAELPWWLLERIARRITSEIPEVVRVVYDITSKPPSTIEWE", "values": [
      {"measurement": "soluble on expression in E. coli", "result": "soluble"}
    ]},
    {"sequence": "MSLKRFIDDHRDVHGVEPICKVLPIAPSTYYAHAARRSDPELRSARAKTDEALMPEIRRVWDENFQVYGVRQLWRQMRREQFAVARCTVQRLMKRQGLRGVIRGKAVRTTVSDAKAPCPLDHVNRQFTSDRPNALWVSDFTDVSTWQGWICVAFVIDVFARRIVGWKASPSMRTELVLDALEQALHARKPVGSERMIHHSDRGVQYVSIRYTERLAEAGLEPSVGSVSDSYDNALAETINGLCKAEVIHRKSSWRTREEVEWATLTWVDWFNNRRVLEPIGNIPPAEAEANYYLISPDLQLQHLRAYREGHHHHHH", "values": [
      {"measurement": "soluble on expression in E. coli", "result": "soluble"}
    ]},
    {"sequence": "MSDGETAVIQSLAPGPIDGVSYPLKMVYCGQCSMPPEYCDYSGQTDVCRAWATQNAPELLEGLEISDEPAADGDEKKKQKRGGKGSKTGAAAAQAAASGGKKKGGGPQKVTLQREPRGKKSVTVIKGLATFDIDLKVASKLFAQKFACGSSVTGADEIVIQGDVKDDLLDLIPEKWKQVTDEQIDDLGDKKR", "values": [
      {"measurement": "soluble on expression in E. coli", "result": "soluble"}
    ]},
    {"sequence": "HFVIRSPEDGANLVMEDMRFLTQEHFVCLYLNTKNQVIHKRTVFIGSLNSSIVHPREVFKEAFKRSAASFICVHNHPSGDPTPSREDIEVTRRLFECGNLIGIELLDHLVIGDKKFVSLKEKGYL", "values": [
      {"measurement": "soluble on expression in E. coli", "result": "not soluble"}
    ]},
    {"sequence": "MSLNSSFFKMMEKRSYNRFNQEQKAAITYDMKKHLRIIAGAGSGKTQTICAKAVYLMTQKQVDEERILMITFTRNAANELKKRVDNFSQRKTAVHIGTFHSIFFRIYNEICRKFPEVAMQGIQGDFSKDTAQKVNAVLQQLIRKYNLYIFDQYGEKTIASRLDYWQNMNLSVEEMVQLVKEKYDSIDKNARQPISERLYGLLTELQEQKRSQQLLEFNDVLQNLKSALENEEIQHYIGQKYDYLFIDEFQDTNPLQWEIVKRMTKENRIKLIVVGDDDQSIYGFRGSEPAYIKNFEKEYPTKTLFLLTNYRSRAAIVQGANRLISYNKNDRIPKAMIPAQKEAGVMEAYLFSDTKAESQWLIKQIQTFIQKNGKYKESIILYRSASQTQQLVQSLLKTNIPFVLEADSPYEGIFGIKSFQHFYQKIVHWQTALNLQKKNQAYQQLLRQLMADCYLKKSECDQYFSPKYQNIAVADYILSISPNLKSKSAEIREFEEALRKTDQHQEIYSLVQSYLHLPRIAKEIDQSDQEWIREEVKQHATFRRLQALSQETQATAKELKTRLIAYRQGKLDALCIQSIHKSKGLSYRNVFLIGCNEGSLPYNGATEKKVIDFNEIKAEPVTTIEEERRLFYVAMTRARNRLYLCVPQMKNSRKLKVSRFIKETGSRVKKGEGHHHHHH", "values": [
      {"measurement": "soluble on expression in E. coli", "result": "soluble"}
    ]},
    {"sequence": "MSEEVIKFTSPRKQVKEEFKLIDTQKIADVRIQWFGKFTKNREKIMFCWKFFPGDKLQNEGIDFLVGHIKAYPHPTYNDFEPFEFDFNVNGAEHKETREYEYLTKNDWCCATYECELTPFRLYGNMFGASTKHDGVLVVEKKKLNVSKAFLSYHSDFFSDLFSREAHSKDIPIEGVTYFEFGLLISCIHPDHTVFPNDETVSKLLSLADRFSMRAVYRMVEHHLLHSSSNMGIREVIKTADQYGMKELMEKSISRITSTEKVMDLIQSAEFPELSAETKAKLMDCMAKMMR", "values": [
      {"measurement": "soluble on expression in E. coli", "result": "not soluble"}
    ]},
    {"sequence": "MIRPVDFQGFVVKGVESVQNVSQTLNQQTLVQQALSQHLLHQIQREQSSVKESNTAERAEVRTSTERRQRGFPQTRTHSSLKKKKTSIKEENKGLFMDVRTLEHHHHHH", "values": [
      {"measurement": "soluble on expression in E. coli", "result": "not soluble"}
    ]},
    {"sequence": "MLENSKKLIMNFVLKYSKKKRQNSGINISEICKFFEHVPLSCAALGLATKKNFGGEICAFKERKIKNYCKIFEPKSALFQTPPPPLIVGVISGAH", "values": [
      {"measurement": "soluble on expression in E. coli", "result": "soluble"}
    ]},
    {"sequence": "MVAWSIVDYGSGDEVPGADAALVLGAAAWGNKPSPVFRERINHAVKLYQSGKVRWIVFTGGTPEPGYPAEADVGREFAARQGVPMTAMLVENQSRTTWQNLSNARDLGNQFGIRSYLLVSDPLHMRRAVLMAGDLGLRAYPAPTQSSRFRTLASWSRFLARETWLYVGYRVFRQLSLEHHHHHH", "values": [
      {"measurement": "soluble on expression in E. coli", "result": "not soluble"}
    ]},
    {"sequence": "MSVTQIDLDDEALADVMRIAAVHTKKEAVNLAMRDYVERFRRIEALARSRE", "values": [
      {"measurement": "soluble on expression in E. coli", "result": "soluble"}
    ]},
    {"sequence": "GPGSMQQSLIPGHNNNRHLTVEEIENNIGGLAITDNKLQELFDSLDVERTGYLPIGEVKKFYKGLEHYGLEPTDAEIESEMKKFAKSDENFMSYDEFCCLMLSFAQR", "values": [
      {"measurement": "soluble on expression in E. coli", "result": "not soluble"}
    ]},
    {"sequence": "VRQYGDMPSRVVVLHGGPGGAGEVEPLARELGNRGHAVLEPFQTCQTVGGQVDELSSHIERFCAPPVTVIGWSWGAWLGCLLAAQRGMLVRRLILVGSGPFEESYASAIRTTKNSRLTKDQRKEISQLRPTEGDPAEVARFIALSDIADTYARDTSQQPFVAFDGAIHAAVWAEAVDMRRNGALLEAVCAIRCPVVAIHGDYDPRPSEGVQIPLRAALPSADFVQLERCGHKPWQETFAKADFYRALEA", "values": [
      {"measurement": "soluble on expression in E. coli", "result": "not soluble"}
    ]}
  ]
}
